Drawing on patent publication US20170253873A1, this text covers decrease in Smad3-dependent luciferase activity for 1 substance.

This assay addresses phosphorylated Smad3 (pSmad3) (UniProt Q8BUN5). The assay is described as follows: cell-based or functional assay.

phosphorylated Smad3 (pSmad3), sequence (Q8BUN5 2-425 limits assumed): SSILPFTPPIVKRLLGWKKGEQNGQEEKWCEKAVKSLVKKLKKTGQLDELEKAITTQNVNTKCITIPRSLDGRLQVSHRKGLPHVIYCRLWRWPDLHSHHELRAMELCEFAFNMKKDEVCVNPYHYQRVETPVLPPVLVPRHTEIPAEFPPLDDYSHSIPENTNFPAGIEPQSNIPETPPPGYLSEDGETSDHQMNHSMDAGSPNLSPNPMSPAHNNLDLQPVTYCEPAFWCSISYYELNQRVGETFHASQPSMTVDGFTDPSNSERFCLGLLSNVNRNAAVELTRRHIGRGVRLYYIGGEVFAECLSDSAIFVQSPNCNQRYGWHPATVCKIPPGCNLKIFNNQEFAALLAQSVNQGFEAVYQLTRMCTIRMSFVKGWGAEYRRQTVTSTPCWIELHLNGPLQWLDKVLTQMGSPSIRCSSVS

The substance “TAT-SH3 (TAT-SNX9(SH3) fusion polypeptide containing the full length SH3 domain, amino acids 1 to 62) (from UniProt Q9Y5X1 1-62) (designed binder)” showed a decrease in Smad3-dependent luciferase activity of 70%.
